The values below come from paper PMC5445526.

Data set [1] concerns the target BXA-(GB1)2. Briefly: MALDI-TOF mass spectrometry.
The target of data set [2] is BXA-(GB1)2. Briefly: SEC + other: SDS-PAGE with gel densitometry.
Data set [3] has as its target BXA-(GB1)2. Briefly: SDS-PAGE with gel densitometry.
A short description of data set [4]: SEC.
Data set [5] deals with BXA-(GB1)2. Briefly: SEC. On the technique in general: SEC sorts molecules by how far they enter the pores of the column.
The target in data set [6] is AXB-(GB1)2. Briefly: MALDI-TOF mass spectrometry.
The target in data set [7] is AXB-(GB1)2. Description: SEC + other: SDS-PAGE with gel densitometry.
For data set [8], the target named is AXB-(GB1)2. Description: SDS-PAGE with gel densitometry.
For data set [9], the target named is AXB-(GB1)2. Description: SEC.
The target in data set [10] is (GB1)2-AXB. Briefly: MALDI-TOF mass spectrometry.
The target of data set [11] is (GB1)2-AXB. Briefly: SEC + other: SDS-PAGE with gel densitometry.
In data set [12] the target is (GB1)2-AXB. Description: SDS-PAGE with gel densitometry.
Data set [13] addresses (GB1)2-AXB. Description: SEC.
The target of data set [14] is (GB1)2-BXA. Description: MALDI-TOF mass spectrometry.
The target of data set [15] is (GB1)2-BXA. Description: SEC + other: SDS-PAGE with gel densitometry.
In data set [16] the target is (GB1)2-BXA. Description: SDS-PAGE with gel densitometry.
For data set [17], the target named is (GB1)2-BXA. Briefly: SEC.

In the case of BXA-(GB1)2, the stoichiometry N in data set [1] and in data set [5] was 2 each time. In addition, the overall catenation efficiency (%) in data set [2] is 83%. Besides, the dimer content by SDS-PAGE densitometry (%) in [3] was 86%. The substance also returned a dimer content by SEC (%) in [4] of 97%.
AXB-(GB1)2: the stoichiometry N in [6] and in data set [9] was 2 each time. Besides, the overall catenation efficiency (%) in [7] came out at 66%. The same substance returned a dimer content by SDS-PAGE densitometry (%) in data set [8] of 80%. For the same substance, the dimer content by SEC (%) in data set [4] amounted to 82%.
With (GB1)2-AXB, the stoichiometry N in data set [10] and in data set [13] was 2 in each case. The overall catenation efficiency (%) in data set [11] was found to be 73%. In data set [12], the dimer content by SDS-PAGE densitometry (%) is 93%. For the same substance, the dimer content by SEC (%) in data set [4] was 78%.
For the substance (GB1)2-BXA, the stoichiometry N in data set [14] and in data set [17] was 2 throughout. Further, the overall catenation efficiency (%) in [15] is 76%. This substance gave a dimer content by SDS-PAGE densitometry (%) in data set [16] of 83%. In data set [4], the dimer content by SEC (%) is 92%.
